T1: wild-type human ALK2 on cells (cDNA in pcDEF3) (human, UniProt Q04771 21-509)
T1 construct: also called wild-type ALK2; ALK2 (WT)
T1 sequence: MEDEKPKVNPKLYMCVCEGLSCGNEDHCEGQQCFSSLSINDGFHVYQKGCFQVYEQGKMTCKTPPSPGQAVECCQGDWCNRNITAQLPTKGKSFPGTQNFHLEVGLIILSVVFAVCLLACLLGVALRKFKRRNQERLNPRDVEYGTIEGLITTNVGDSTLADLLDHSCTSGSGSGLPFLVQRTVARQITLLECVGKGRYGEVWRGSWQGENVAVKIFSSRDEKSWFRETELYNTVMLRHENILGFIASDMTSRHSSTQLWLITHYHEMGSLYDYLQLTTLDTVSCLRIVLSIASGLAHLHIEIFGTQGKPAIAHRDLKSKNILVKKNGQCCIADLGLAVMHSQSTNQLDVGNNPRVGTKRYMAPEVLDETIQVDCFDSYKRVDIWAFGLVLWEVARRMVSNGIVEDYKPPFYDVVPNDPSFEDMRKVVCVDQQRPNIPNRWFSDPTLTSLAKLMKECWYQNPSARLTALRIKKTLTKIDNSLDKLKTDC

T2: human ALK2-P197_F198delinsL on cells (human, UniProt Q04771 21-509)
T2 construct: also called delP197_F198insL
T2 sequence: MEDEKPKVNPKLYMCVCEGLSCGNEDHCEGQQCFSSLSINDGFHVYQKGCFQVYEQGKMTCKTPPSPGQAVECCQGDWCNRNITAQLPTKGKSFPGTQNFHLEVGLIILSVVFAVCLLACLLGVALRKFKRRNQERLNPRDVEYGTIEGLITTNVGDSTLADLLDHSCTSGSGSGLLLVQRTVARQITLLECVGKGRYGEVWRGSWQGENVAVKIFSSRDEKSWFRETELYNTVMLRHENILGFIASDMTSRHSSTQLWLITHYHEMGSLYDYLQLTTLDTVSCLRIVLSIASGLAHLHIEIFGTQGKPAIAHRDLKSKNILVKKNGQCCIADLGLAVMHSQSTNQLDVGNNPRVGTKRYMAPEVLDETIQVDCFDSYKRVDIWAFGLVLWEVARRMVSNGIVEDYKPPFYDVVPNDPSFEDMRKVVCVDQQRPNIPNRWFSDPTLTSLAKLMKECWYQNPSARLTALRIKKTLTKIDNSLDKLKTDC

T3: human ALK2-G328E on cells (human, UniProt Q04771 21-509)
T3 sequence: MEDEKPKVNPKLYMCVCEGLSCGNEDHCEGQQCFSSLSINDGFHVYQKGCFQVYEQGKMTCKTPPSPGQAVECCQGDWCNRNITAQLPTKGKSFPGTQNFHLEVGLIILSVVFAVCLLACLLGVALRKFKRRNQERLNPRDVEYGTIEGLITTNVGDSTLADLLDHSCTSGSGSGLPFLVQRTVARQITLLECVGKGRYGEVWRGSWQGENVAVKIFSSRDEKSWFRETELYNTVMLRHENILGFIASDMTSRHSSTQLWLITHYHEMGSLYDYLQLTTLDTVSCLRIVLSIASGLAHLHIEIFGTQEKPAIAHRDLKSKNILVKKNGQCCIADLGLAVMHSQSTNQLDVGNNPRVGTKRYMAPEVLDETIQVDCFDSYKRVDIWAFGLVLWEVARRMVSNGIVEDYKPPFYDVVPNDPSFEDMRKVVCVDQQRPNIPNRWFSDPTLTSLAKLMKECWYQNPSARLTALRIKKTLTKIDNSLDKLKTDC

T4: human ALK2-G328R on cells (human, UniProt Q04771 21-509)
T4 sequence: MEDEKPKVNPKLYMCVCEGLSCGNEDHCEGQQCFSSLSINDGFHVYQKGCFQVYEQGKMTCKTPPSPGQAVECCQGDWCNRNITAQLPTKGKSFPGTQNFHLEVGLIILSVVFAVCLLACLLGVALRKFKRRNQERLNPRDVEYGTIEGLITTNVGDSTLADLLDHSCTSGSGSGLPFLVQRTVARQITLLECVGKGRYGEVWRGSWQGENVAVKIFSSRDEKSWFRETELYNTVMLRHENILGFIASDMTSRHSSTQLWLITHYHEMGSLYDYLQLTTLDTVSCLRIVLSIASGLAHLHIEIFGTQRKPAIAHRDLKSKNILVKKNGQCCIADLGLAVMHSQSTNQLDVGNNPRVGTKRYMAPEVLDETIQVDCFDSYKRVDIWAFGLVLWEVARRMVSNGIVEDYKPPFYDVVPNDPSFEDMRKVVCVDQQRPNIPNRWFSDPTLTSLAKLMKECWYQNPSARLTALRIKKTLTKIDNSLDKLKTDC


Experiments:
Assay in all cases: immunofluorescence on transfected, formalin-fixed C2C12 cells, IgG at 10 µg/mL, Alexa 594 anti-rat IgG
[1] = target: T1, wild-type human ALK2 on cells (cDNA in …)
Description: (§1) Mouse C2C12 cells were seeded into a 96-well plate (Greiner Bio-One) at 0.5×10³ cells/well, and cultured in 15% FBS-containing DMEM medium overnight under the conditions of 5% CO₂ at 37° C. On the following day, the C2C12 cells were transfected with each of a wild-type human ALK2 cDNA integrated into pcDEF3; pcDEF3/human ALK2-L196P, pcDEF3/human ALK2-P197_F198delinsL, pcDEF3/human ALK2-R202I, pcDEF3/human ALK2-R206H, pcDEF3/human ALK2-Q207E, pcDEF3/human ALK2-R258S, pcDEF3/human ALK2-G325A, pcDEF3/human ALK2-G328E, pcDEF3/human ALK2-G328R, pcDEF3/human ALK2-G328W, pcDEF3/human ALK2-G356D, and pcDEF3/human ALK2-R375P, which are variants identified in FOP; and pcDEF3 as a control, using Lipofectamine 2000 (Invitrogen), and further cultured overnight.
(§2) The C2C12 cells were fixed with 10% neutral formalin (Nacalai Tesque, Japan) for 20 minutes at room temperature, and then blocked with 10% goat normal serum for 30 minutes. After the blocking agent was removed, purified IgG diluted to 10 μg/mL with the blocking agent was added, and the cells were left for 1 hour at room temperature. After the cells were washed with PBS three times, Goat Alexa 594-conjugated anti-rat IgG (Invitrogen) diluted to 1:1000 with the blocking agent was added, and the cells were left for 1 hour at room temperature. After the cells were washed with PBS three times, the cells were fixed with 10% neutral formalin for 15 minutes at room temperature, and nuclear-stained with DAPI (LifeTechnologies). Fluorescent signals were analyzed with a fluorescence microscope BZ-9000 (Keyence).

[2] = target: T2, human ALK2-P197_F198delinsL on cells
Description: as §1, §2

[3] = target: T3, human ALK2-G328E on cells
Description: as §1, §2

[4] = target: T4, human ALK2-G328R on cells
Description: as §1, §2

Row | binding result [1] | binding result [2] | binding result [3] | binding result [4] | Binder
1 | binds | binds | binds | binds | rat anti-ALK2 monoclonal antibody A2-27D (antibody, V domains shown, Rat monoclonal IgG from a hybridoma; also called 27D11) VH: EVQLVESGGGLVQPGRSLKLSCLASGSTFSNYGMKWIRQAPGKGLEWVASISRSSTYIYYADTVKGRFTISRDNARNTLYLQMTSLRSEDTALYYCAAAISTPFYWYFDFWGPGTVVTVSS VL: EIVLTQSPTTMAASPGEKVTLNCLASSSVSYMTWYQQKSGASPKLWIYGTSNLASGVPNRFSGSGSGTSYSLAISSMEAEDVATYYCLHLTSYPPYTFGAGTKLELKR
2 | binds | binds | binds | binds | rat anti-ALK2 monoclonal antibody A2-25C (antibody, V domains shown, Rat monoclonal IgG from a hybridoma; also called 25C11) VH: EVQLVESGGGLVQPGGSLKLSCAASGFTFSYYAMSWVCQAPTKGLEWVASISRGGDNTYYRDTVKGRFTTSRDNAKNTLYLQMDSLRSEDTATYYCARLNYNNYFDYWGQGVMVTVSS VL: DIQMTQSPASLSASLEEIVTITCQASQDIGNWLSWYQQKPGKSPQLLIYGATSLADGVPSRFSGSRSGTQYSLKISRLRVEDIGIYYCLQAYSAPFTFGSGTKLEIKR

From patent publication US20220041738A1 (SAITAMA MEDICAL UNIVERSITY, published 2022)
